Sequences and labels used below:
B1: Phototropin-1 (Arabidopsis thaliana (Mouse-ear cress)), O48963 (parent)
chain: MEPTEKPSTKPSSRTLPRDTRGSLEVFNPSTQLTRPDNPVFRPEPPAWQNLSDPRGTSPQPRPQQEPAPSNPVRSDQEIAVTTSWMALKDPSPETISKKTITAEKPQKSAVAAEQRAAEWGLVLKTDTKTGKPQGVGVRNSGGTENDPNGKKTTSQRNSQNSCRSSGEMSDGDVPGGRSGIPRVSEDLKDALSTFQQTFVVSDATKPDYPIMYASAGFFNMTGYTSKEVVGRNCRFLQGSGTDADELAKIRETLAAGNNYCGRILNYKKDGTSFWNLLTIAPIKDESGKVLKFIGMQVEVSKHTEGAKEKALRPNGLPESLIRYDARQKDMATNSVTELVEAVKRPRALSESTNLHPFMTKSESDELPKKPARRMSENVVPSGRRNSGGGRRNSMQRINEIPEKKSRKSSLSFMGIKKKSESLDESIDDGFIEYGEEDDEISDRDERPESVDDKVRQKEMRKGIDLATTLERIEKNFVITDPRLPDNPIIFASDSFLELTEYSREEILGRNCRFLQGPETDLTTVKKIRNAIDNQTEVTVQLINYTKSGKKFWNIFHLQPMRDQKGEVQYFIGVQLDGSKHVEPVRNVIEETAVKEGEDLVKKTAVNIDEAVRELPDANMTPEDLWANHSKVVHCKPHRKDSPPWIAIQKVLESGEPIGLKHFKPVKPLGSGDTGSVHLVELVGTDQLFAMKAMDKAVMLNRNKVHRARAEREILDLLDHPFLPALYASFQTKTHICLITDYYPGGELFMLLDRQPRKVLKEDAVRFYAAQVVVALEYLHCQGIIYRDLKPENVLIQGNGDISLSDFDLSCLTSCKPQLLIPSIDEKKKKKQQKSQQTPIFMAEPMRASNSFVGTEEYIAPEIISGAGHTSAVDWWALGILMYEMLYGYTPFRGKTRQKTFTNVLQKDLKFPASIPASLQVKQLIFRLLQRDPKKRLGCFEGANEVKQHSFFKGINWALIRCTNPPELETPIFSGEAENGEKVVDPELEDLQTNVF
partner: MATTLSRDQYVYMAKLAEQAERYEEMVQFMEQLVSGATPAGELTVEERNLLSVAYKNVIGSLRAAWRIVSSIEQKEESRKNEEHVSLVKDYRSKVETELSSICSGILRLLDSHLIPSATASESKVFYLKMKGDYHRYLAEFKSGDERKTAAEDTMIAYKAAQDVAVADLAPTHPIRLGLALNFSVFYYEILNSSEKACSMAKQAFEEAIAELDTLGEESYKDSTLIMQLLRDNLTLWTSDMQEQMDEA
B2: Phototropin-1 (Arabidopsis thaliana (Mouse-ear cress)), O48963 (parent)
chain: B1 chain
partner: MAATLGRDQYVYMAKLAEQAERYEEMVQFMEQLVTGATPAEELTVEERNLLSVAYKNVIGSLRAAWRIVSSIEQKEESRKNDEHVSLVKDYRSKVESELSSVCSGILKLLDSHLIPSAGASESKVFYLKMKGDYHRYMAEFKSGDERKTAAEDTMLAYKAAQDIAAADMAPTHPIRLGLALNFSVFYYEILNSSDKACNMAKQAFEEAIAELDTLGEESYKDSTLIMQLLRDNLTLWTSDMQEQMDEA

The first experiment covers variants of B1. Conditions: with 14338_arath GRF8, P48348.
Regarding S350A, the “effect of a mutation on the interaction” value was “disrupting interaction”.
As for S410A, the “effect of a mutation on the interaction” value was “disrupting interaction”.
Turning to S376A, the “effect of a mutation on the interaction” value is “disrupting interaction”.

Another experiment covers variants of B2. The following applies: with 14336_arath GRF6, P48349.
For S350A, the “effect of a mutation on the interaction” value was “decreasing interaction”.

The variants in the next experiment derive from B2. The following applies: with 14336_arath GRF6, P48349. This is another data set of the same source.
On to S350A, for which the “effect of a mutation on the interaction” value is recorded as “disrupting interaction”.
As to S376A, the “effect of a mutation on the interaction” value is on record as “disrupting interaction”.

The next experiment covers variants of B2. The following applies: with 14336_arath GRF6, P48349. This is another data set of the same source.
Turning to S376A, the “effect of a mutation on the interaction” value is “decreasing interaction”.

Another experiment covers variants of B2. Conditions: with 14336_arath GRF6, P48349. The source holds these as a separate data set.
As for S410A, the “effect of a mutation on the interaction” value was “disrupting interaction”.
